{
  "source": "the DeepSol protein solubility set",
  "data": [
    {"assay": "soluble on expression in E. coli; label from the status in PepcDB or PDB records", "values": [
      {"sequence": "GSNEIKRGAVDLIKTGVNEKAMAGAVFSLFKKDGTEVKKELATDANGHIRVQGLEYGEYYFQETKAPKGYVIDPTKREFFVKNSGTINEDGTITSGTVVKMEVKNNEEPTIDKKINGKLEALPINPLTNYNYDIKTLIPEDIKEYKKYVVTDTLDNRLVIQGKPIVKIDGAEVNANVVEVAIEGQKVTATVKDFTKMDGKKEFHLQIKSQVKEGVPSGSEILNTAKIHFTNKNDVIGEKESKPVVVIPTTGIIELTKIDSANKNKMKGAEFVLKDNNGKIVVVAGKEVTGVSDENGVIKWSNIPYGDYQIFETKAPTYTKEDGTKTSYQLLKDPIDVKISENNQTVKLTIENNKS", "soluble on expression in E. coli": "soluble"},
      {"sequence": "MRGSHHHHHHGSMKRAVITGLGIVSSIGNNQQEVLASLREGRSGITFSQELKDSGMRSHVWGNVKLDTTGLIDRKVVRFMSDASIYAFLSMEQAIADAGLSPEAYQNNPRVGLIAGSGGGSPRFQVFGADAMRGPRGLKAVGPYVVTKAMASGVSACLATPFKIHGVNYSISSACATSAHCIGNAVEQIQLGKQDIVFAGGGEELCWEMACEFDAMGALSTKYNDTPEKASRTYDAHRDGFVIAGGGGMVVVEELEHALARGAHIYAEIVGYGATSDGADMVAPSGEGAVRCMKMAMHGVDTPIDYLNSEGTSTPVGDVKELAAIREVFGDKSPAISATKAMTGHSLGAAGVQEAIYSLLMLEHGFIAPSINIEELDEQAAGLNIVTETTDRELTTVMSNSFGFGGTNATLVMRKLKD", "soluble on expression in E. coli": "soluble"},
      {"sequence": "MGSDKIHHHHHHMSDTHIGAKSLTIEEREQDYYDTFQEAVEIAIDEKVDFIIHSGDLFDTWIPGNRSMKVFRDAMMKLNDRQIPVFYVFGDHDRPRRNSESAAGIFDFLGLHILGRDEFAGIEREFSGMKVFIGGISNMKGYLRNQLKEEYKKAESASTGYKNSILISHQALDPIFIPEQCEAKVNDLPMNYSYIAMGHLHDFVEREIGPLLSYPGSTELKSDREINGLLKMGKGINVIDLDNGVASLHRVKLKKVRYQFKVESDPENYLEEIKSILDKYANAIGEKKPIVNLIINGQISMEEVYEDLKKINGAIFNRPQILKIVDMPNVPSGSSELREYFQAFLKDQKLTDLAMKVFQHTADGDKEAIIREAAGEAIDN", "soluble on expression in E. coli": "not soluble"},
      {"sequence": "MSLGRDKDLNILCWEGYNSAQVLDPFRKLTGATVKAESSTNDPTMINRLRAGETNVWDLINVNNPWARKILWPQNLIKPLDRAEFEPFFDKMLPEFKAPYRWAMSDDGKDLLGMAQRFGPFCFVVDTDKISRQTAEDQGWDLWNDKALAGRYGIQESDDWNVFGLFLIAGINPFKTHTEAELAKFEETAKAVFKGAKVVGDMASMNQALVSGEIDLYLSGGTYTVSPARAEGLGNLRGITPLRGPIDGKGGVMWVEITSQVNNPQLSPLAGQFLKHVQTPQVAHTVAFAEGTFNPIAQMGNPDCFKLFSKAELDAIQWDSLAEEMARSVAYDIVPDYDKALDLMTAAKRVRGEGHHHHHH", "soluble on expression in E. coli": "soluble"},
      {"sequence": "SPVSKCPKKSESLWKGWDRKAQRNGLRSQVYAVNGDYYVGEWEDNVKHGKGTQVWKKKGAIYEGDWKFGKRDGYGTLSLPDQQTGKCRRVYSGWWKGDKKSGYGIQFFGPKEYYEGDWCGSQRSGWGRMYYSNGDIYEGQWENDKPNGEGMLRLKNGNRYEGCWERGMKNGAGRFFHLDHGQLFEGFWVDNMAKCGTMIDFGRDEAPEPTQFPIPEVKILDPDGVLAEALAMFRKTEEGD", "soluble on expression in E. coli": "soluble"},
      {"sequence": "MEYFMSGKSIFDKLWDRHVITGDEGQPQLMYVDQHYIHEVTSPQAFQGLRDAGRKVRRPDLTFGTFDHNVPTVNIFDIRDAISKAQIDKLAENVIEFGIDNASHGSDKQGIVHMVGPETGRTQPGKFIVCGDSHTATHGAFGTIAFGIGTSEVEHVFATQTLWQVKPKK", "soluble on expression in E. coli": "not soluble"},
      {"sequence": "MAVKGLGEVDQKYDGSKLRIGILHARWNRKIIDALVAGAVKRLQEFGVKEENIIIETVPGSFELPYGSKLFVEKQKRLGKPLDAIIPIGVLIKGSTMHFEYICDSTTHQLMKLNFELGIPVIFGVLTCLTDEQAEARAGLIEGKMHNHGEDWGAAAVEMATKFN", "soluble on expression in E. coli": "soluble"},
      {"sequence": "MGSDKIHHHHHHMSSILRLDRLRQFIGELATLLDSRPDESTLLAQAHPLLAELVHQDDWLPEDCARPDPQRYQQYLLHVDSRQRFSVVSFVWGPGQITPVHDHRVWGLIGMLRGAEYSQPYAFDAGGRPHPSGARRRLEPGEVEALSPRIGDVHQVSNAFSDRTSISIHVYGANIGAVRRAVFSAEGEEKPFISGYSNSRLPNIWDLSKENPA", "soluble on expression in E. coli": "not soluble"},
      {"sequence": "GSAQLLKSVFVKNVGWATQLTSGAVWVQFNDGSQLVMQAGVSSISYTSPDGQTTRYGENEKLPEYIKQKLQLLSSILLMFSNPTPVFQ", "soluble on expression in E. coli": "soluble"},
      {"sequence": "MPLSGEYAPSPLDWSREQADTYMKSGGTEGTQLQGKPVILLTTVGAKTGKLRKTPLMRVEHDGQYAIVASLGGAPKNPVWYHNVVKNPRVELQDGTVTGDYDAREVFGDEKAIWWQRAVAVWPDYASYQTKTDRQIPVFVLTPVRAGG", "soluble on expression in E. coli": "soluble"},
      {"sequence": "RAGHIEVAEVEGMSFPVKLDTGADVSSINAKDIKLFQKDGKDMVSFTYENDLGMQKAFTREVVDVMKITAKKGEKANVRPVVEMHVKLGELEKKIRVNLQDRGRFHYSMILGKNFLKHGALVASETNYIVTKKPDYEK", "soluble on expression in E. coli": "not soluble"},
      {"sequence": "MGSDKIHHHHHHVHHRHHKKGIIHRDADEMIEFPKRSNDRLGETMIHGQIICHGTPLDYVRPYLSSKKYPRVIINICVSDDGGWYRLTTGNMFDLEGSVTFTVRHQCLMDKLPPMIQCAVPYYTTEVTIDLSSNTTYIGRSFELSKMEAYSSADCLY", "soluble on expression in E. coli": "not soluble"},
      {"sequence": "MALLCYNRGCGQRFDPETNSDDACTYHPGVPVFHDALKGWSCCKRRTTDFSDFLSIVGCTKGRHNSEKPPEPVKPEVKTTEKKELCELKPKFQEHIIQAPKPVEAIKRPSPDEPMTNLELKISASLKQALDKLKLSSGNEENKKEEDNDEIKIGTSCKNGGCSKTYQGLESLEEVCVYHSGVPIFHEGMKYWSCCRRKTSDFNTFLAQEGCTKGKHMWTKKDAGKKVVPCRHDLHQTGGEVTISVYAKNSLPELSRVEANSTLLNVIIVFEGEKEFDQNVKLWGVIDVKRSYVTMTATKIEITMRKAEPMQWASLELPAAKKQEKQKDDTTD", "soluble on expression in E. coli": "soluble"},
      {"sequence": "LVCRGSNEPTYCLCHQVSYGEMIGCDNPDCPIEWFHFACVDLTTKPKGKWFCPRCVQEK", "soluble on expression in E. coli": "soluble"},
      {"sequence": "GPGSMKRLLDSAKHLLRGGSLGYLASGEPYHPFGEDFGLTVFPDYIQLREKLALRSGYVDVYTQRSASIKLSDGRFQLPPLPKHSFLPLVERLEQDGIVPRGWLNNQTANLYEPEDFIRAHIDNLFVYDDIFAVISLGANALLRFVHVQNGEELDVVIPDGSVYIMSGPSRYVYFHMVLPVEAQRVSIVFRRSILNSDGGFRPVSTPLGDLMPYRSTQILNTLYAKQIGGVRVAVDDKYLEKEEIGAFDTGKWVKGLHPLRDWTLLSQLDEDEARVLELREKRYLDVDLSWRFTELRKRYKELEDMLRV", "soluble on expression in E. coli": "not soluble"},
      {"sequence": "GDTHEFHKLLIKVVDLFLEDRIKEFEMKLNTTLDELEFEELIGKPDSSNSAENNGIFIDEYSYDASENAMKKLFVEYVRQPEFKYTVLSIKGVNDWVRE", "soluble on expression in E. coli": "soluble"},
      {"sequence": "GSARDISSTNVTDLTVSPSKIEDGGKTTVKMTFDDKNGKIQNGDMIKVAWPTSGTVKIEGYSKTVPLTVKGEQVGQAVITPDGATITFNDKVEKLSDVSGFAEFEVQGRNLTQTNTSDDKVATITSGNKSTNVTVHKSEAGTSSVFYYKTGDMLPEDTTHVRWFLNINNEKSYVSKDITIKDQIQGGQQLDLSTLNINVTGTHSNYYSGQSAITDFEKAFPGSKITVDNTKNTIDVTIPQGYGSYNSFSINYKTKITNEQQKEFVNNSQAWYQEHGKEEVNGKSFNHTVHNINANAGIEGTVK", "soluble on expression in E. coli": "soluble"},
      {"sequence": "MSLITTRTARQCGQADYGWLQARYTFSFGHYFDPKLLGYASLRVLNQEVLAPGAAFQPRTYPKVDILNVILDGEAEYRDSEGNHVQASAGEALLLSTQPGVSYSEHNLSKDKPLTRMQLWLDACPQRENPLIQKLALNMGKQQLIASPEGAMGSLQLRQQVWLHHIVLDKGESANFQLHGPRAYLQSIHGKFHALTHHEEKEGHHHHHH", "soluble on expression in E. coli": "not soluble"},
      {"sequence": "MGSDKIHHHHHHMKFPRKGIPQEEVMRELEKYTSKDLSFSSGKILGSMCTLPHELAKEVFCMYMDRNLGDPGLHPGTKKIEEEVIEMLSDLLHLERGYGHIVSGGTEANILAVRAFRNLADVENPELILPKSAHFSFIKAGEMLGVKLIWADLNPDYTVDVKDVEAKISENTIGIVGIAGTTGLGVVDDIPALSDLARDYGIPLHVDAAFGGFVIPFAKELGYDLPDFDFKLKGVQSITIDPHKMGMAPIPAGGIVFRHKKYLRAISVLAPYLAGGKIWQATITGTRPGASVLAVWALIKHLGFEGYMEIVDRAMKLSRWFAEEIKKTPGAWLVREPMLNIVSFKTKNLRRVERELKSRGWGISAHRGYIRIVSHASCDGGHD", "soluble on expression in E. coli": "not soluble"},
      {"sequence": "MPEYSSVTGLEGVKFAPLKKENGFYVATKIIDYPYAINAKVNTETSTEKQYADNKLVDMAVTTGSTKLELEMRDLPMEILEELFGIEETDGIYMFKKNVIAPWVAMSFYGPKANGKNRHVGLVKGRFSLPDDEWKTKEEKTDFQTVKLSAEFMEREQDNAYKVLADEDAPNFNLDKFYEKVFGNAYKNPDSGSDNKSSVDIGKTVLEHHHHHH", "soluble on expression in E. coli": "soluble"},
      {"sequence": "MAISLQKGQRISLSKEAPGLSKMMCGLGWDVAKRSGGGFFSNFGGGGQNYDLDASVICLDANGKLTAKENIIYFGNLQHLSGAITHTGDNLTGAGDGDDEVIIVDLPRIPAQIVKLVFVVNIYDCIARKQDFSQIENAFVRLVNAANNKELARYNLSGKEYLGMTGMVLAEVYRHNDDWKLAAIGNGVNVNGLGELAGSYS", "soluble on expression in E. coli": "not soluble"},
      {"sequence": "MGSDKIHHHHHHMAHVNTNGIQIEYEVFGKRTNPTIVLIAGNGAQLNFWESDFCEMLAQHNLQVIRFDNRDAGLSTKFDAAGIPDMSKIYQAAQEGKPIKTAYTLEDMADDVAGLLDALEIKKAHICGASMGGMIAQVFAYRHPLRICSLISIMSSTGNPNNPKISQETLEIVTATPPNQRGAYIEYTVHMWKKLWSKGFPFEEERAIRYTEESYDRCYYPQGAVRQNAALVANGDRRKYLSLLRVPTLVIHGTADPLIPVEAGKDTARTIPNAKLLLIEGMGHDMPKGTWKCIVEAIVSLVRDTSHSCWR", "soluble on expression in E. coli": "not soluble"},
      {"sequence": "NETEVAKTSQDTTTASSSSEQNQSSNKTQTSAEVQTNAAAYWDGDYYVKDDGSKAQSEWIFDNYYKAWFYINSDGRYSQNEWHGNYYLKSGGYMAQNEWIYDSNYKSWFYLKSDGAYAHQEWQLIGNKWYYFKKWGYMAKSQWQGSYFLNGQGAMIQNEWLYDPAYSAYFYLKSDGTYANQEWQKVGGKWYYFKKWGYMARNEWQGNYYLTGSGAMATDEVIMDGARYIFAASGELKEKKDLNVGWVHRDGKRYFFNNREEQVGTEHAKKIIDISEHNGRINDWKKVIDENEVDGVIVRLGYSGKEDKELAHNIKELNRLGIPYGVYLYTYAENETDAENDAKQTIELIKKYNMNLSYPIYYDVQNWEYVNKSKRAPSDTDTWVKIINKYMDTMKQAGYQNVYVYSYRSLLQTRLKHPDILKHVNWVAAYTNALEWENPYYSGEKGWQYTSSEYMKGIQGRVDVSVWY", "soluble on expression in E. coli": "soluble"},
      {"sequence": "MAGDPMETLLIQQTEKSNKFWKIVVKEKDYVVFYGKIGTAGSVKAKEFETEEECMNEANKLVASKRKKGYIDPLPGEDYIKEKTITEEEFWELLHRAKTKGEDQEEQIEWLTSHLAKRTVHEIVAFDTHMHSLLKDSYTSRLWAAAYIIMGGCSDDTFDYFRGWLLYQGKETYEACIEDPERLIPVLENLSEYDVPEIEELSLYFGFTVYAEKTGDEDDTYFTLYHVLSNEEFDDVDFEFDWNEDDEEGLKKVFPRLWEMYGEEPIEWLEHHHHHH", "soluble on expression in E. coli": "soluble"}
    ]}
  ]
}
